# Biological target: eIF4E (UniProt P63074)
# Assay: anti-eIF4E IP, anti-histidine blot
# Conditions: reference: wild type Hsp27; sites S15,S78,S82
substance,measurement,value
Hsp27 (from UniProt P04792) 3A (S15A/S78A/S82A),binding against the reference,weaker

# Reference: paper PMC5652782
